Substitutions are numbered along the chain they refer to.
Legend:
Assay in all cases: cell_activity; 3T46 transposition in E. coli T5 vs 3T3/WT
Conditions in all cases: chain copies: 2
Mos-1 transposase FETY = biological target: T1, Mos-1 transposase FETY (Drosophila mauritiana, UniProt Q7JQ07 SEQ:1-345, F53Y,E137K,T216A,Y237C)
T1 sequence: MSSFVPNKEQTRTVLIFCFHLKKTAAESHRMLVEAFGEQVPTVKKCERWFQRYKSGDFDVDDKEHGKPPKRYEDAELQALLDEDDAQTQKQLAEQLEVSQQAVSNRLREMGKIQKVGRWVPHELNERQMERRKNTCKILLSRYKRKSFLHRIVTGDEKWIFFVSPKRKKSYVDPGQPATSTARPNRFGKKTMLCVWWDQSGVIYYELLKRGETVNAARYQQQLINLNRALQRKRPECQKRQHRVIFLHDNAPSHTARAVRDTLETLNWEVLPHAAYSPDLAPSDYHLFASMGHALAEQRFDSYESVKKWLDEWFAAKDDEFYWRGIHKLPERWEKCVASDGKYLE
Description: (§1) Escherichia coli JM109 bacteria were co-transformed with the pBC 3T3 plasmid (comprising a transposition reporter 2 ITR 3′ mariner-like element and the chloramphenicol resistance gene) and with the inducible vector encoding for the transposase (pKK-Tnp or pMal-Tnp) comprising the ampicillin resistance gene. The bacteria selection was performed on ampicillin (100 μg/ml) and chloramphenicol in order to verify the presence of the two plasmids.
(§2) The JM109 bacteria containing both the pBC 3T3 plasmid and the pKK-Tnp (or pMalC2X-Tnp) plasmid were placed in culture for 1 hr at 37° C. in 250 μl of LB. This inoculum was then poured into 5 ml of LB supplemented with 1 mM IPTG. The culture was titrated on LB plates (100 μl of a 1/1000 dilution) and on LB-Tet plates (12.5 μg/ml) (250 μl of the non-diluted culture). The culture induced by IPTG was then cultured for 5 hours at 32° C. (optimal temperature of transposase) under stirring (250 rpm). The bacterial suspension was then titrated on LB plates (100 μl of a 1/250,000 dilution) and on LB-tet plates (100 μl of the undiluted bacterial suspension). The plates were placed at 37° C. overnight. The following day, the colonies were counted on LB and LB-Tet plates, and the transposition frequency (equal to the number of tetracycline bacteria over the number of bacterial per 1 ml of undiluted bacterial suspension) was calculated.
(§3) In order to evaluate the transposition efficiency of systems associating a hyperactive transposase and a pseudo-transposon that is also hyperactive, various combinations were tested in the transposition test in bacteria described in part I, paragraph I-B above.

Mos-1 transposase FTY = biological target: T2, Mos-1 transposase FTY (Drosophila mauritiana, UniProt Q7JQ07 SEQ:1-345, F53Y,T216A,Y237C)
T2 sequence: T1 sequence with K137E
Description: as §1, §2, §3

Mos-1 transposase FT = biological target: T3, Mos-1 transposase FT (Drosophila mauritiana, UniProt Q7JQ07 SEQ:1-345, F53Y,T216A)
T3 sequence: T1 sequence with K137E, C237Y
Description: as §1, §2, §3

Mos-1 transposase QY = biological target: T4, Mos-1 transposase QY (Drosophila mauritiana, UniProt Q7JQ07 SEQ:1-345, Q91R,Y237C)
T4 sequence: T1 sequence with Y53F, Q91R, K137E, A216T
Description: as §1, §2, §3

B1: ITR46 (dsDNA)
DNA 1: TCAGGTGTACAAGTATGAGATGTCGTTT
DNA 2: AAACGACATCTCATACTTGTACACCTGA
- activity (Mos-1 transposase FETY): 2 fold
- activity (Mos-1 transposase FTY): 19.4 fold
- activity (Mos-1 transposase FT): 3.7 fold
- activity (Mos-1 transposase QY): 1.7 fold

Source: patent US20100291682, “SYSTEM FOR TRANSPOSING HYPERACTIVE RECOMBINANT DERIVATIVES OF MOS-1 TRANSPOSON” (published 2010)
